Results: patent US20210205286A1 (UNM RAINFOREST INNOVATIONS, published 2021)

B1: FLAG-Gal9^R65A/R239A (other, UniProt O00182-2 1-323, looked up)
chain: MAFSGSQAPYLSPAVPFSGTIQGGLQDGLQITVNGTVLSSSGTRFAVNFQTGFSGNDIAFHFNPAFEDGGYVVCNTRQNGSWGPEERKTHMPFQKGMPFDLCFLVQSSDFKVMVNGILFVQYFHRVPFHRVDTISVNGSVQLSYISFQPPGVWPANPAPITQTVIHTVQSAPGQMFSTPAIPPMMYPHPAYPMPFITTILGGLYPSKSILLSGTVLPSAQRFHINLCSGNHIAFHLNPAFDENAVVRNTQIDNSWGSEERSLPRKMPFVRGQSFSVWILCEAHCLKVAVDGQHLFEYYHRLRNLPTINRLEVGGDIQLTHVQT
notes: also called double mutant; glycan recognition mutant; not shown: FLAG tag
B2: GFP-Gal8 (other, UniProt O00214 1-317, looked up)
chain: MMLSLNNLQNIIYNPVIPFVGTIPDQLDPGTLIVIRGHVPSDADRFQVDLQNGSSMKPRADVAFHFNPRFKRAGCIVCNTLINEKWGREEITYDTPFKREKSFEIVIMVLKDKFQVAVNGKHTLLYGHRIGPEKIDTLGIYGKVNIHSIGFSFSSDLQSTQASSLELTEISRENVPKSGTPQLRLPFAARLNTPMGPGRTVVVKGEVNANAKSFNVDLLAGKSKDIALHLNPRLNIKAFVRNSFLQESWGEEERNITSFPFSPGMYFEMIIYCDVREFKVAVNGVHSLEYKHRFKELSSIDTLEINGDIHLLEVRSW
notes: also called Galectin 8; GFP-tagged galectin; not shown: GFP

Experiments:
[1] = molecular target: T1, LAMP2 (endogenous) (UniProt P13473 29-410, limits assumed, glycosylated (binding told as glycan-dependent)); assay: co-IP, anti-FLAG IP, blot for endogenous LAMP2, HEK293T, 1 mM LLOMe 30 min (FIG. 2B)
T1 construct: Integral lysosomal membrane glycoprotein
T1 sequence (P13473 29-410 limits assumed): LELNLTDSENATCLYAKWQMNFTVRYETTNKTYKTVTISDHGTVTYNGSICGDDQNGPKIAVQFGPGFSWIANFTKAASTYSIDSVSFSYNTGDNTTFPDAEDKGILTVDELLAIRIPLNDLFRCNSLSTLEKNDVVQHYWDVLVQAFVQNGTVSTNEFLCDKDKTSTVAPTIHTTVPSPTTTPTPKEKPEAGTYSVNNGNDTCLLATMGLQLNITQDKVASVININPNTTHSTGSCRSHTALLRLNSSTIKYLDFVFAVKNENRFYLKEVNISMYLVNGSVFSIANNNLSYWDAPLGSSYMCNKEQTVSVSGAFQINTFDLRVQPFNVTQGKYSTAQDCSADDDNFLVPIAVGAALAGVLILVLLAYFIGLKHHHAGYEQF
Experimental: (A) APEX2 proximity biotinylation analysis. […] Biotinylated proteins were then affinity-isolated on streptavidin beads and analyzed by immunoblotting in response to LLOMe. (B) Co-immunoprecipitation (Co-IP) analysis of interactions between LAMP2 and Gal9. HEK293T cells expressing FLAG-tagged Gal9 or glycan recognition mutant forms of Gal9 (individual R65A, R239A, or double/combined R65A/R239A were treated with 1 mM LLOMe for 30 min in full medium. IP, anti-FLAG antibody; immunoblotting with endogenous LAMP2. (C) Immunofluorescence confocal microscopy visualization of Gal9 puncta in Hula cells transfected with FLAG-Gal9^WT or double mutant FLAG-Gal9^{R65A/R239A} and treated with lysosomal damaging agent (1 mM LLOMe) in full medium for 30 min. Cells were immunostained for FLAG-Gal9. Scale bar, 10 μM . (D) Analysis of FLAG-Gal9 puncta formation in Huh7 WT cells transfected with FLAG-Gal9 and respective mutants. Cells as in (C) were treated as in (C), measured by FICM (blue: nuclei, Hoechst 33342; green: anti-FLAG antibody, Alexa-488). White masks, computer algorithm-defined cell boundaries; green masks, computer-identified Gal9 puncta. (E) Immunofluorescence confocal microscopy visualization of Ub puncta in Gal9WT^Huh7 and Gal9KO^Huh7 cells complemented with FLAG-Gal9^WT or FLAG-Gal9^{R65A/R239A}. […] (F) Endogenous Ub puncta quantified by HCM. […]

[2] = molecular target: T2, USP9X (endogenous) (UniProt Q93008 1-2554, limits assumed); assay: co-IP, anti-FLAG IP, blot for endogenous USP9X, HEK293T (FIG. 3C)
T2 construct: also called deubiquitinating enzyme USP9X; DUB USP9X
T2 sequence (Q93008 whole entry): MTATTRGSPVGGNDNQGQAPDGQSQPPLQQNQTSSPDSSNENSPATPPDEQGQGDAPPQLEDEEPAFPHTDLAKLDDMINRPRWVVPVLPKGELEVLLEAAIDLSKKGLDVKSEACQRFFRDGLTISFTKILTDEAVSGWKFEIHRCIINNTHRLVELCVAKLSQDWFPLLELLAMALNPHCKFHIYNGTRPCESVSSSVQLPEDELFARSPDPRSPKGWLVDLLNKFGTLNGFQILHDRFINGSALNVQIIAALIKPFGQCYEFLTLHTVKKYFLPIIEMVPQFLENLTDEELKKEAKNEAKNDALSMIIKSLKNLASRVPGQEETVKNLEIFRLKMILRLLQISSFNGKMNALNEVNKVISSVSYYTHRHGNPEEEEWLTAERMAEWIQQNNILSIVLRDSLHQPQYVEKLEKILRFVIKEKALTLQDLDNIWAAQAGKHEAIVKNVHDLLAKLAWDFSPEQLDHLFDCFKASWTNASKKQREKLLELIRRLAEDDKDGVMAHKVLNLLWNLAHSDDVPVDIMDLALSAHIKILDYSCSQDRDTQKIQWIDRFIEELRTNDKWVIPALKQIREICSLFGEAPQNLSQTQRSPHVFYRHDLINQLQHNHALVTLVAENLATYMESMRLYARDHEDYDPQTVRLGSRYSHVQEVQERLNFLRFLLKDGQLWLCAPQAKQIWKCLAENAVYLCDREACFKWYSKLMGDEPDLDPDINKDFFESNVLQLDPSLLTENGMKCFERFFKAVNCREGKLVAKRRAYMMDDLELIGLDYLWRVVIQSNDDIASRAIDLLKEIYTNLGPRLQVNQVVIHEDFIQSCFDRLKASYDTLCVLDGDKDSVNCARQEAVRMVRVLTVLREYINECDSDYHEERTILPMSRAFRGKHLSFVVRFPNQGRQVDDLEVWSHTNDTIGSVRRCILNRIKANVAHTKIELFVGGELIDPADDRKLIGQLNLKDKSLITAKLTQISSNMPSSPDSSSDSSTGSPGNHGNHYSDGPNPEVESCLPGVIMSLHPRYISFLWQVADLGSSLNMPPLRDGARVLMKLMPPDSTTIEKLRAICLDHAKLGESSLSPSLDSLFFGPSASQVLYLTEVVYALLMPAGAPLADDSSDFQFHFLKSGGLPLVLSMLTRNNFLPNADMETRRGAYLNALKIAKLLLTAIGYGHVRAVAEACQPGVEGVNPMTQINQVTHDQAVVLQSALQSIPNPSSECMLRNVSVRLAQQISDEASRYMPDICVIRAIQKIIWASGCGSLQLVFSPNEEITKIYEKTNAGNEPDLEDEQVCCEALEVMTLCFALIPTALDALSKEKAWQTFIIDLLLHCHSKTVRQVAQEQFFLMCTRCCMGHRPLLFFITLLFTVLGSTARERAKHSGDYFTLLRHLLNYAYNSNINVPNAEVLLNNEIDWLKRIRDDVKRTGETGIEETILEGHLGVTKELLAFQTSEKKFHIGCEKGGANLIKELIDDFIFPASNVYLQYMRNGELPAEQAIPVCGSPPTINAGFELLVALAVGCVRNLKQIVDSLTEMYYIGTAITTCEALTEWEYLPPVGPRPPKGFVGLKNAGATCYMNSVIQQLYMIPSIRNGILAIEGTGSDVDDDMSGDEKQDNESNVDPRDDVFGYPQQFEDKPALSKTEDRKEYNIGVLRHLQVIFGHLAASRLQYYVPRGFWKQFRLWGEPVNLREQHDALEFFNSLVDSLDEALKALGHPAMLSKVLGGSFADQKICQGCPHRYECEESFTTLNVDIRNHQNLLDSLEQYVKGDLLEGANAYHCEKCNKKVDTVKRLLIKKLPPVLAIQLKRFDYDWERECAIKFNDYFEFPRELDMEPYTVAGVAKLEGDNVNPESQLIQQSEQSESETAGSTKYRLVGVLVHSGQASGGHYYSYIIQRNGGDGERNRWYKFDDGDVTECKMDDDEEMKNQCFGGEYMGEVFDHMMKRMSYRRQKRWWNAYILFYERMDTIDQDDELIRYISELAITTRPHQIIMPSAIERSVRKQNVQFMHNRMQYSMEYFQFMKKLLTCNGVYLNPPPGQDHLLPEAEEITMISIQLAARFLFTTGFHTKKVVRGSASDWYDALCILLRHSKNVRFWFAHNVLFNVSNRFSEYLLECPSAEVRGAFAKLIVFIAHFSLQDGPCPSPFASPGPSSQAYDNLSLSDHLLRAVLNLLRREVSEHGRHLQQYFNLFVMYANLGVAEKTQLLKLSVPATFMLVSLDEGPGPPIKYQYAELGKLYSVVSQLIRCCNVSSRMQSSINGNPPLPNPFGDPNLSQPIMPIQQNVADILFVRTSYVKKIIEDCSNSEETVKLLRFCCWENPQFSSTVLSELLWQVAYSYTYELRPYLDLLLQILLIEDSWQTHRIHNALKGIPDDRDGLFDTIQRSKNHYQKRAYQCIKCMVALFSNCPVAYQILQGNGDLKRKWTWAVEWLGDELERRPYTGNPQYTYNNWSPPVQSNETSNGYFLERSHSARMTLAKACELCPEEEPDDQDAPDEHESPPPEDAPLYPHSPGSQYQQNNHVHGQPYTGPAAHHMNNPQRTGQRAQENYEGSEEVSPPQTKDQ

[3] = molecular target: T1, LAMP2 (endogenous); assay: co-IP, anti-GFP IP of GFP-tagged galectins, blot for endogenous LAMP2 (FIG. S2B)
Text: (B) Co-IP analysis of galectins and LAMP2. Cells expressing GFP-tagged galectins were subjected to anti-GFP immunoprecipitation followed by immunoblotting for endogenous LAMP2. (C) Schematic, strategy for stable HeLa Flp-In Gal9^Tet-ON which stably express mCherry-Gal9 induced by tetracycline. HeLa Flp-In Gal9^Tet-ON cells treated with LLOMe in a time dependent manner quantified by HCM. (D) HCM visualization of mCherry-Gal9 localization relative to LAMP2-positive lysosomes. Cells as in (C) were treated with LLOMe for 30 min in full medium and immunostained for endogenous LAMP2 and mCherry Gal9. (E) Immunofluorescence confocal microscopy visualization of mCherry-Gal9 localization relative to LAMP2-positive lysosomes. Cells as in (D) immunostained for endogenous LAMP2 and mCherry Gal9. Scale bar, 10 μM. (F) HCM visualization of mCherry-Gal9 localization relative to endogenous Ub puncta. Cells as in (C) were treated with LLOMe for 30 min in full medium and immunostained for endogenous Ub and mCherry Gal9. (G) Immunofluorescence confocal microscopy visualization of mcherry-Gal9 localization relative to endogenous Ub and LAMP1-positive lysosomes. Cells as in (C) were treated with LLOMe for 30 min in full medium and immunostained for endogenous Ub, LAMP1 and mCherry Gal9. Scale bar, 10 μM. […]

Binder	binding result [1]	binding result [2]	binding result [3]
B1	no binding	binds	
B2			no binding
